From the supplement of paper PMC5998384

Assays:
HeLa Kyoto [1] = assay: melting temperature (median over replicates), in situ; higher = more thermally stable
HeLa Kyoto [2] = assay: thermal stability score vs G1/S (z-score of summed log2 fold changes over temperatures); higher = more thermally stable than in G1/S
HeLa Kyoto [3] = assay: solubility change mitosis vs G1/S (difference of NP-40 vs SDS log2 ratios) (log2 ratio difference); higher = more soluble in mitosis
HeLa Kyoto [4] = assay: solubility in G1/S (NP-40 vs SDS abundance) (log2 ratio); higher = more soluble; conditions: cell cycle stage: G1/S
[5] = cell cycle stage: early G1 (4.5 h after nocodazole release)
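Throughout, for melting temperature (median over replicates), in situ: HeLa Kyoto cells synchronized by double thymidine or nocodazole block, proteins quantified by TMT10plex mass spectrometry, three independent biological replicates.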
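Throughout, for solubility change mitosis vs G1/S (difference of NP-40 vs SDS log2 ratios): synchronized HeLa Kyoto cells (double thymidine block for G1/S, nocodazole release for mitosis), protein amounts in NP-40 versus SDS lysates quantified by mass spectrometry, three biological replicates.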
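Throughout, for solubility in G1/S (NP-40 vs SDS abundance): HeLa Kyoto cells arrested at G1/S by double thymidine block, proteins quantified by TMT10plex mass spectrometry in mild NP-40 versus SDS extracts, three biological replicates.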
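Throughout, for thermal stability score vs G1/S (z-score of summed log2 fold changes over temperatures): synchronized HeLa Kyoto cells, proteins quantified by TMT10plex mass spectrometry, three biological replicates, mitosis taken 0.5 h after nocodazole release, G1/S directly after double thymidine block.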

Chain of CSNK2B (chain, as listed by the source): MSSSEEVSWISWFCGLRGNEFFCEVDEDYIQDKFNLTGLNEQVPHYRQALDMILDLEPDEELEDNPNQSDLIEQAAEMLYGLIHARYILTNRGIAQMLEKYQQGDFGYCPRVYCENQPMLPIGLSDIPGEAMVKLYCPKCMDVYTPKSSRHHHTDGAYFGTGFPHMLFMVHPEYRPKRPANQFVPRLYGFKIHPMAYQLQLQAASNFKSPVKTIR
Chain of NOS1AP (chain, as listed by the source): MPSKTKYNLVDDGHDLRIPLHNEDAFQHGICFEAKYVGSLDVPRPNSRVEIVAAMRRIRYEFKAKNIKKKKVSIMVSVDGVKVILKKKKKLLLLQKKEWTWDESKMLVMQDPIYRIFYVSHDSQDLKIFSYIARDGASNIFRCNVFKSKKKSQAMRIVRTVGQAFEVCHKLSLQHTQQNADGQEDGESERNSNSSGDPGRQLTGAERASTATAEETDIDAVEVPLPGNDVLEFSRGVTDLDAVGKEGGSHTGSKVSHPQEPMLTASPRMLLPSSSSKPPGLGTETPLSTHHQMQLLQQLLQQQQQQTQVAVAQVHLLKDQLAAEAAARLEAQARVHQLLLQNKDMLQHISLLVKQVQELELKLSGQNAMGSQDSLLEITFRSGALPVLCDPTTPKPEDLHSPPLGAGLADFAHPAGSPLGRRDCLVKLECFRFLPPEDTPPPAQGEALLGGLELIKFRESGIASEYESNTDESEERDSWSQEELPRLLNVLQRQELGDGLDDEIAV
Chain of DENND4C (chain, as listed by the source): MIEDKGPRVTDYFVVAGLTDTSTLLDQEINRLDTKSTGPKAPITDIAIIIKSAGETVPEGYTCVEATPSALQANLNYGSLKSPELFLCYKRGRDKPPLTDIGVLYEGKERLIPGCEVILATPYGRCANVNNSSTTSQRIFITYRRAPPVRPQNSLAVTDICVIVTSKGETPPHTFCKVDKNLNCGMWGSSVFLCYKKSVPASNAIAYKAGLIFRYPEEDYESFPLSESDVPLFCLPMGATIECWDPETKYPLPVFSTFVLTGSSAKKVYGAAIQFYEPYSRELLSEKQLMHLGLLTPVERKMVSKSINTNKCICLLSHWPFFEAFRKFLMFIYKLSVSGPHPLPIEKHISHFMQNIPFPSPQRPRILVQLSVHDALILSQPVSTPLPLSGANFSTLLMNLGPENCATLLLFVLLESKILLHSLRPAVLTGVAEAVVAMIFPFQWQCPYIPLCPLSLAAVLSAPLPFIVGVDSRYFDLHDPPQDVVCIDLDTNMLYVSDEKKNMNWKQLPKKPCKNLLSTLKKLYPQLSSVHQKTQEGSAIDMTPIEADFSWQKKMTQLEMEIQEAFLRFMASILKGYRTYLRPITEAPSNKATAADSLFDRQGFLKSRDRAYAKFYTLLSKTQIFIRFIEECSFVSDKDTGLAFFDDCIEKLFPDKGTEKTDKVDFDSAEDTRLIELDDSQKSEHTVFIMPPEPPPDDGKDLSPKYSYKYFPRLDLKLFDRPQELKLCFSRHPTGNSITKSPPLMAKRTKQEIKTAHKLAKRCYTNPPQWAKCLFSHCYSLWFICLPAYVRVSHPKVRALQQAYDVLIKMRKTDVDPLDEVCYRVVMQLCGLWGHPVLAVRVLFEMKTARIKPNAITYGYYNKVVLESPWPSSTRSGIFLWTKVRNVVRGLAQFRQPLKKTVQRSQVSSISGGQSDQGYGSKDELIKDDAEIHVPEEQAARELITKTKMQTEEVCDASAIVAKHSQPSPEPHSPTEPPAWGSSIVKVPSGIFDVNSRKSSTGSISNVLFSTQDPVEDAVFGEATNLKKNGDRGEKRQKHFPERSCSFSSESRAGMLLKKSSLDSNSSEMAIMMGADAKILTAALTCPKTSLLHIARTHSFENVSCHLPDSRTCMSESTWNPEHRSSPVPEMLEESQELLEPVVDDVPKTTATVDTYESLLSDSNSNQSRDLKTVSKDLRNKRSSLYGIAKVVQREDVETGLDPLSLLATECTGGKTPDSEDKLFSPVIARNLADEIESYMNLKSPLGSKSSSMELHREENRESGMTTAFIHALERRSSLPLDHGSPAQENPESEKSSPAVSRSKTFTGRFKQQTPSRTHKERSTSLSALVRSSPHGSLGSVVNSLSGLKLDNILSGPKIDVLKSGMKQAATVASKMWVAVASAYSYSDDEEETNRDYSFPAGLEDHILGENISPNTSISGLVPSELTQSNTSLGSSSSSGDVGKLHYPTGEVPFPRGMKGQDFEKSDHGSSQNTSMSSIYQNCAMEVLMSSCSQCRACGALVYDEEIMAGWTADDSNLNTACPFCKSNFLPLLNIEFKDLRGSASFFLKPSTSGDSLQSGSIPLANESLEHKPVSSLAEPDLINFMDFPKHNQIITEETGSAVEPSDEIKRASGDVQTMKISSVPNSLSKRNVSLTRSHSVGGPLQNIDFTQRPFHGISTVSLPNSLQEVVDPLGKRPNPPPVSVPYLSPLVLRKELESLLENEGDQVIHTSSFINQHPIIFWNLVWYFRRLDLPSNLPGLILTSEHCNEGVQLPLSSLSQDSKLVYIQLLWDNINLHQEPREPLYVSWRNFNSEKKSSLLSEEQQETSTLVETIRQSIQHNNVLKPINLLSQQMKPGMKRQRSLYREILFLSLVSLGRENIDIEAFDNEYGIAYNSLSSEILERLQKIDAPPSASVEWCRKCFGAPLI
Chain of COL5A2 (chain, as listed by the source): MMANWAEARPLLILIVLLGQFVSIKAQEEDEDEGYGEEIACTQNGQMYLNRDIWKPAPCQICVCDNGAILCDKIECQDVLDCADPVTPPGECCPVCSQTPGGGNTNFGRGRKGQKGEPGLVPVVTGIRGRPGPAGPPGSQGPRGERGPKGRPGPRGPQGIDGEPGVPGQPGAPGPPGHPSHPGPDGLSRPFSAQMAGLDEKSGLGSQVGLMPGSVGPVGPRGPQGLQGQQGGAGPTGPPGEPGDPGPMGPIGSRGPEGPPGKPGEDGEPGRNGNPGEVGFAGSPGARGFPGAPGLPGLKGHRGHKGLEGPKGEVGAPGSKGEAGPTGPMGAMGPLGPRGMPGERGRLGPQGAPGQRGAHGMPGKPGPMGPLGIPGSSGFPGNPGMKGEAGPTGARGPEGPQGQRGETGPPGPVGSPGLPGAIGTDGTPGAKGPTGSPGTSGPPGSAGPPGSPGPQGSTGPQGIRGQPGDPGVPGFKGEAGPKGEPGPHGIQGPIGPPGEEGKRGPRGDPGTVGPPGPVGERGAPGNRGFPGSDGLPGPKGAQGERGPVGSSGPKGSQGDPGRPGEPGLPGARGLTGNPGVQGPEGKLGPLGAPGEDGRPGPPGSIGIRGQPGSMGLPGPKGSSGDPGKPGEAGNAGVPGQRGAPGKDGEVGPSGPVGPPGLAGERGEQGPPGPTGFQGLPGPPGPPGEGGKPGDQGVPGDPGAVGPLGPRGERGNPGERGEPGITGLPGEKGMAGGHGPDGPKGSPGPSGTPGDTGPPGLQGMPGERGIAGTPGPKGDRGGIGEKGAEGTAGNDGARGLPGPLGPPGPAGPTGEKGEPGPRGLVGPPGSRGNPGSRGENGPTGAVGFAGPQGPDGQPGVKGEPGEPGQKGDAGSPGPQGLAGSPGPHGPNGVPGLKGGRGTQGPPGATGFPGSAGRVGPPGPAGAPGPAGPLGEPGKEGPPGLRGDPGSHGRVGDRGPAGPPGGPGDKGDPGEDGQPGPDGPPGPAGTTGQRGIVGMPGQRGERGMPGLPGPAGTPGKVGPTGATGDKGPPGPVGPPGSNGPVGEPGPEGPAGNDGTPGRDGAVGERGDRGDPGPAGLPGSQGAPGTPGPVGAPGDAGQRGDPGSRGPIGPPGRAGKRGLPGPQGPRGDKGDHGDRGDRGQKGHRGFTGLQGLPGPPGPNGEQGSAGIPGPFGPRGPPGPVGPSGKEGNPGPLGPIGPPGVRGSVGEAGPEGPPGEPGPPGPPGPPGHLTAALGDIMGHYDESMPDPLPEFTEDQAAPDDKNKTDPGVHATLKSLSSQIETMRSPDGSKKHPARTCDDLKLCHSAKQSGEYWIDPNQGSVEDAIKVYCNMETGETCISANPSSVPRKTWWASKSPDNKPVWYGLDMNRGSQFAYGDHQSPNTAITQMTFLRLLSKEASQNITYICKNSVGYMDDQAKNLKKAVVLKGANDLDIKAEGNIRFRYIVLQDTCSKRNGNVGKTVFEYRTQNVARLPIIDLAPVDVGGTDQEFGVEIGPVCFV
Chain of DCK (chain, as listed by the source): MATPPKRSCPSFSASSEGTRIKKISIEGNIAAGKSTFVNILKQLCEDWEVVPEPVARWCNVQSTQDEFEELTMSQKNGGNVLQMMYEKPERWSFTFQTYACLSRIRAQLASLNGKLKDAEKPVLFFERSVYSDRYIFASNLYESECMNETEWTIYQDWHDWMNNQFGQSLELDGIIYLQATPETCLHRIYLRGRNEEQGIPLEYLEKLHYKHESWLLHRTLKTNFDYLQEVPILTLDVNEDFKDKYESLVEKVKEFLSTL
Chain of EMC10 (chain, as listed by the source): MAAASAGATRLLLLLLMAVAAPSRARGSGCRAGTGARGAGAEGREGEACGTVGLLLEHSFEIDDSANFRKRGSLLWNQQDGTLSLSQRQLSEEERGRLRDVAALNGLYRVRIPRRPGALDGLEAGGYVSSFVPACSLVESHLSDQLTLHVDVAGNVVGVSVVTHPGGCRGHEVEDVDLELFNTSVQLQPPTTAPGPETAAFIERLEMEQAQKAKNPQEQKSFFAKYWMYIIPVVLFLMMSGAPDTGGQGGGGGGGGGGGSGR

| Substance | melting temperature (HeLa Kyoto [1]; cell cycle stage: G1/S) [°C] | melting temperature (HeLa Kyoto [1]; cell cycle stage: mitosis) [°C] | thermal stability score (HeLa Kyoto [2]; [5]) | thermal stability score (HeLa Kyoto [2]; cell cycle stage: mitosis) | solubility change mitosis (log2) (HeLa Kyoto [3]) | solubility in G1/S (log2) (HeLa Kyoto [4]) |
| --- | --- | --- | --- | --- | --- | --- |
| COL5A2 | 54.6 | 57.9 | 2.88 | 0.949 | 0.0391 | -0.0207 |
| CSNK2B | 50.8 | 51.1 | 0.696 | 0.623 | 0.0236 | 0.227 |
| CTBP2 | 55.3 | 53.4 | -2.44 | -6.63 | -0.0285 | 0.144 |
| DCK | 53.9 | 53.1 | 2.05 | 2.37 | -0.103 | 0.17 |
| DENND4C | 50.6 | 50.8 | 0.187 | 0.554 | -0.154 | 0.0629 |
| DHRS1 | 50.7 | 51 | 0.897 | 0.418 | 0.0211 | 0.111 |
| DIDO1 | 49.1 | 49.8 | 0.743 | 4.5 | 0.231 | -0.458 |
| DMD | 49.9 | 50.2 | 0.00802 | 0.278 | -0.235 | 0.235 |
| DOCK10 | 52.3 | 51.8 | -1.12 | -0.873 | -0.143 | -0.189 |
| DOCK11 | 51.4 | 51.5 | 0.076 | -0.52 | -0.145 | -0.234 |
| EIF4H | 51.3 | 51.9 | -1.37 | -1.91 | 0.16 | 0.374 |
| EIF5A | 49.7 | 50.7 | 0.791 | 0.0469 | 0.0244 | 0.638 |
| EMC10 | 52.2 | 54.1 | 1.37 | 0.155 | -0.339 | 0.514 |
| EPRS | 48.6 | 49 | -0.525 | 2.58 | -0.127 | -0.115 |
| FAM98A | 53.4 | 51.3 | -1.25 | -0.239 | 0.324 | -0.0181 |
| FAT1 | 53.5 | 53.5 | 0.357 | 0.56 | -0.025 | -0.133 |
| FOCAD | 52.9 | 52.4 | -1.09 | -1.91 | -0.121 | -0.471 |
| MSQVMSSPLLAGGHAVSLAPCDEPRRTLHPAPSPSLPPQCSYYTTEGWGAQALMAPVPCMGPPGRLQQAPQVEAKATCFLPSPGEKALGTPEDLDSYIDFSLESLNQMILELDPTFQLLPPGTGGSQAELAQSTMSMRKKEESEALDIKYIEVTSARSRCHDGPQHCSSPSVTPPFGSLRSGGLLLSRDVPRETRSSSESLIFSGNQGRGHQRPLPPSEGLSPRPPNSPSISIPCMGSKASSPHGLGSPLVASPRLEKRLGGLAPQRGSRISVLSASPVSDVSYMFGSSQSLLHSSNSSHQSSSRSLESPANSSSSLHSLGSVSLCTRPSDFQAPRNPTLTMGQPRTPHSPPLAKEHASSCPPSITNSMVDIPIVLINGCPEPGSSPPQRTPGHQNSVQPGAASPSNPCPATRSNSQTLSDAPFTTCPEGPARDMQPTMKFVMDTSKYWFKPNITREQAIELLRKEEPGAFVIRDSSSYRGSFGLALKVQEVPASAQSRPGEDSNDLIRHFLIESSAKGVHLKGADEEPYFGSLSAFVCQHSIMALALPCKLTIPQRELGGADGASDSTDSPASCQKKSAGCHTLYLSSVSVETLTGALAVQKAISTTFERDILPTPTVVHFKVTEQGITLTDVQRKVFFRRHYPLTTLRFCGMDPEQRKWQKYCKPSWIFGFVAKSQTEPQENVCHLFAEYDMVQPASQVIGLVTALLQDAERM [TNS4] | – | – | -0.0391 | 2.56 | -0.0286 | 0.00637 |
| MSSCVSSQPSSNRAAPQDELGGRGSSSSESQKPCEALRGLSSLSIHLGMESFIVVTECEPGCAVDLGLARDRPLEADGQEVPLDTSGSQARPHLSGRKLSLQERSQGGLAAGGSLDMNGRCICPSLPYSPVSSPQSSPRLPRRPTVESHHVSITGMQDCVQLNQYTLKDEIGKGSYGVVKLAYNENDNTYYAMKVLSKKKLIRQAGFPRRPPPRGTRPAPGGCIQPRGPIEQVYQEIAILKKLDHPNVVKLVEVLDDPNEDHLYMVFELVNQGPVMEVPTLKPLSEDQARFYFQDLIKGIEYLHYQKIIHRDIKPSNLLVGEDGHIKIADFGVSNEFKGSDALLSNTVGTPAFMAPESLSETRKIFSGKALDVWAMGVTLYCFVFGQCPFMDERIMCLHSKIKSQALEFPDQPDIAEDLKDLITRMLDKNPESRIVVPEIKLHPWVTRHGAEPLPSEDENCTLVEVTEEEVENSVKHIPSLATVILVKTMIRKRSFGNPFEGSRREERSLSAPGNLLTKKPTRECESLSELKEARQRRQPPGHRPAPRGGGGSALVRGSPCVESCWAPAPGSPARMHPLRPEEAMEPE [CAMKK2] | – | – | -0.348 | -0.0506 | -0.0691 | 0.289 |
| MSSECDGGSKAVMNGLAPGSNGQDKATADPLRARSISAVKIIPVKTVKNASGLVLPTDMDLTKICTGKGAVTLRASSSYRETPSSSPASPQETRQHESKPGLEPEPSSADEWRLSSSADANGNAQPSSLAAKGYRSVHPNLPSDKSQDATSSSAAQPEVIVVPLYLVNTDRGQEGTARPPTPLGPLGCVPTIPATASAASPLTFPTLDDFIPPHLQRWPHHSQPARASGSFAPISQTPPSFSPPPPLVPPAPEDLRRVSEPDLTGAVSSTDSSPLLNEVSSSLIGTDSQAFPSVSKPSSAYPSTTIVNPTIVLLQHNREQQKRLSSLSDPVSERRVGEQDSAPTQEKPTSPGKAIEKRAKDDSRRVVKSTQDLSDVSMDEVGIPLRNTERSKDWYKTMFKQIHKLNRDTPEENPYFPTYKFPELPEIQQTSEEDNPYTPTYQFPASTPSPKSEDDDSDLYSPRYSFSEDTKSPLSVPRSKSEMSYIDGEKVVKRSATLPLPARSSSLKSSSERNDWEPPDKKVDTRKYRAEPKSIYEYQPGKSSVLTNEKMSRDISPEEIDLKNEPWYKFFSELEFGKPPPKKIWDYTPGDCSILPREDRKTNLDKDLSLCQTELEADLEKMETLNKAPSANVPQSSAISPTPEISSETPGYIYSSNFHAVKRESDGAPGDLTSLENERQIYKSVLEGGDIPLQGLSGLKRPSSSASTKDSESPRHFIPADYLESTEEFIRRRHDDKEKLLADQRRLKREQEEADIAARRHTGVIPTHHQFITNERFGDLLNIDDTAKRKSGSEMRPARAKFDFKAQTLKELPLQKGDIVYIYKQIDQNWYEGEHHGRVGIFPRTYIELLPPAEKAQPKKLTPVQVLEYGEAIAKFNFNGDTQVEMSFRKGERITLLRQVDENWYEGRIPGTSRQGIFPITYVDVIKRPLVKNPVDYMDLPFSSSPSRSATASPQFSSHSKLITPAPSSLPHSRRALSPEMHAVTSEWISLTVGVPGRRSLALTPPLPPLPEASIYNTDHLALSPRASPSLSLSLPHLSWSDRPTPRSVASPLALPSPHKTYSLAPTSQASLHMNGDGGVHTPSSGIHQDSFLQLPLGSSDSVISQLSDAFSSQSKRQPWREESGQYERKAERGAGERGPGGPKISKKSCLKPSDVVRCLSTEQRLSDLNTPEESRPGKPLGSAFPGSEAEQTERHRGGEQAGRKAARRGGSQQPQAQQRRVTPDRSQTSQDLFSYQALYSYIPQNDDELELRDGDIVDVMEKCDDGWFVGTSRRTKQFGTFPGNYVKPLYL [SORBS1] | – | – | -0.134 | 4.08 | 0.424 | -0.0532 |
| MSWLFGVNKGPKGEGAGPPPPLPPAQPGAEGGGDRGLGDRPAPKDKWSNFDPTGLERAAKAARELEHSRYAKEALNLAQMQEQTLQLEQQSKLKEYEAAVEQLKSEQIRAQAEERRKTLSEETRQHQARAQYQDKLARQRYEDQLKQQQLLNEENLRKQEESVQKQEAMRRATVEREMELRHKNEMLRVETEARARAKAERENADIIREQIRLKASEHRQTVLESIRTAGTLFGEGFRAFVTDRDKVTATVAGLTLLAVGVYSAKNATAVTGRFIEARLGKPSLVRETSRITVLEALRHPIQVSRRLLSRPQDVLEGVVLSPSLEARVRDIAIATRNTKKNRGLYRHILLYGPPGTGKTLFAKKLALHSGMDYAIMTGGDVAPMGREGVTAMHKLFDWANTSRRGLLLFMDEADAFLRKRATEEISKDLRATLNAFLYHMGQHSNKFMLVLASNLPEQFDCAINSRIDVMVHFDLPQQEERERLVRLHFDNCVLKPATEGKRRLKLAQFDYGRKCSEVARLTEGMSGREIAQLAVSWQATAYASKDGVLTEAMMDACVQDAVQQYRQKMRWLKAEGPGRGVEHPLSGVQGETLTSWSLATDPSYPCLAGPCTFRICSWMGTGLCPGPLSPRMSCGGGRPFCPPGHPLL [ATAD3B] | – | – | 0.595 | 0.439 | -0.00813 | -0.105 |
| MVRGARQPQQPRSRLAPRLTGTVEKPPRKRRSRTEFALKEIMSSGGAEDDIPQGERKTVTDFCYLLDKSKQLFNGLRDLPQYGQKQWQSYFGRTFDVYTKLWKFQQQHRQVLDNRYGLKRWQIGEIASKIGQLYYHYYLRTSETSYLNEAFSFYSAIRQRSYYSQVNKEDRPELVVKKLRYYARFIVVCLLLNKMDVVKDLVKELSDEIEDYTHRFNTEDQVEWNLVLQEVAAFIEADPVMVLNDDNTIVITSNRLAETGAPLLEQGMIVGQLSLADALIIGNCNNQVKFSELTVDMFRMLQALEREPMNLASQMNKPGMQESADKPTRRENPHKYLLYKPTFSQLYTFLAASFKELPANSVLLIYLSATGVFPTGRSDSEGPYDFGGVLTNSNRDIINGDAIHKRNQSHKEMHCLHPGDLYPFTRKPLFIIVDSSNSVAYKNFTNLFGQPLVCLLSPTAYPKALQDQSQRGSLFTLFLNNPLMAFLFVSGLSSMRRGLWEKCQEYLRKINRDIAQLLTHSRSIDQAFLQFFGDEFLRLLLTRFIFCSATMRMHKIFRETRNYPESYPQLPRDETVENPHLQKHILELASILDVRNVFFENTIDDY [SCAI] | – | – | 0.148 | -0.274 | -0.117 | -0.309 |
| NOS1AP | – | – | 0.688 | 0.322 | -0.0377 | -0.0474 |
| PIKFYVE | – | – | 0.473 | 0.726 | -0.153 | -0.0952 |
| SNRPF | – | – | -0.0433 | -0.451 | -0.0169 | -1.06 |
| VPS13D | – | – | 0.236 | -0.0982 | -0.104 | -0.404 |
